Laboratory results: patent US20190054182A1
Like-named read-outs stand apart in the source and are kept apart here.

Key:
[1] = biological target: T1, MPER binding peptide (Acetyl-[…]-Ttds-Lys-(Biotin)-NH2) (HIV-1)
[2] = biological target: 20 pseudotyped viruses representing 10 different HIV-1 clades; assay: cell-based or functional assay
[3] = biological target: panel of 208 different HIV-1 Env-pseudotyped viruses; assay: cell-based or functional assay
[4] = biological target: T1, MPER binding peptide …; assay: SPR (Biacore) with the MPER binding peptide
[5] = biological target: 20 pseudotyped viruses representing 10 different HIV-1 clades; assay: cell-based or functional assay; remark: listed apart in the source

B1: Binding Protein 2 (protein)
light 1: DFVLTQSPHSLSVTPGESASISCKSSHSLIHGDRNNYLAWYVQKPGRSPQLLIYLASSRASGVPDRFSGSGSDKDFTLKISRVETEDVGTYYCMQGRESPWTFGQGTKVDIKDKTHTASELTQDPAVSVALKQTVTITCRGDSLRSHYASWYQKKPGQAPVLLFYGKNNRPSGIPDRFSGSASGNRASLTITGAQAEDEADYYCSSRDKSGSRLSVFGGGTKLTVLDKTHTRTVAAPSVFIFPPSDEQLKSGTASVVCLLNNFYPREAKVQWKVDNALQSGNSQESVTEQDSKDSTYSLSSTLTLSKADYEKHKVYACEVTHQGLSSPVTKSFNRGEC
heavy 1: EVRLVESGGGLVKPGGSLRLSCSASGFDFDNAWMTWVRQPPGKGLEWVGRITGPGEGWSVDYAESVKGRFTISRDNTKNTLYLEMNNVRTEDTGYYFCARTGKYYDFWSGYPPGEEYFQDWGQGTLVIVSSDKTHTQVHLTQSGPEVRKPGTSVKVSCKAPGNTLKTYDLHWVRSVPGQGLQWMGWISHEGDKKVIVERFKAKVTIDWDRSTNTAYLQLSGLTSGDTAVYYCAKGSKHRLRDYALYDDDGALNWAVDVDYLSNLEFWGQGTAVTVSSDKTHTASTKGPSVFPLAPSSKSTSGGTAALGCLVKDYFPEPVTVSWNSGALTSGVHTFPAVLQSSGLYSLSSVVTVPSSSLGTQTYICNVNHKPSNTKVDKKVEPKSCDKTHTCPPCPAPELLGGPSVFLFPPKPKDTLMISRTPEVTCVVVDVSHEDPEVKFNWYVDGVEVHNAKTKPREEQYNSTYRVVSVLTVLHQDWLNGKEYKCKVSNKALPAPIEKTISKAKGQPREPQVYTLPPCRDELTKNQVSLWCLVKGFYPSDIAVEWESNGQPENNYKTTPPVLDSDGSFFLYSKLTVDKSRWQQGNVFSCSVLHEALHSHYTQKSLSLSPG
heavy 2: RAHLVQSGTAMKKPGASVRVSCQTSGYTFTAHILFWFRQAPGRGLEWVGWIKPQYGAVNFGGGFRDRVTLTRDVYREIAYMDIRGLKPDDTAVYYCARDRSYGDSSWALDAWGQGTTVVVSAASTKGPSVFPLAPSSKSTSGGTAALGCLVKDYFPEPVTVSWNSGALTSGVHTFPAVLQSSGLYSLSSVVTVPSSSLGTQTYICNVNHKPSNTKVDKKVEPKSCDKTHTCPPCPAPELLGGPSVFLFPPKPKDTLMISRTPEVTCVVVDVSHEDPEVKFNWYVDGVEVHNAKTKPREEQYNSTYRVVSVLTVLHQDWLNGKEYKCKVSNKALPAPIEKTISKAKGQPREPQVCTLPPSRDELTKNQVSLSCAVKGFYPSDIAVEWESNGQPENNYKTTPPVLDSDGSFFLVSKLTVDKSRWQQGNVFSCSVLHEALHSHYTQKSLSLSPG
light 2: YIHVTQSPSSLSVSIGDRVTINCQTSQGVGSDLHWYQHKPGRAPKLLIHHTSSVEDGVPSRFSGSGFHTSFNLTISDLQADDIATYYCQVLQFFGRGSRLHIKRTVAAPSVFIFPPSDEQLKSGTASVVCLLNNFYPREAKVQWKVDNALQSGNSQESVTEQDSKDSTYSLSSTLTLSKADYEKHKVYACEVTHQGLSSPVTKSFNRGEC
Work on B1 yielded a Ka [1] of 1.65e+08 M⁻¹, a Kd [1] of 6.05 nM and a koff [1] of 0.000697 s⁻¹. It also gave a kon [1] of 115000 M⁻¹ s⁻¹, a Geometric Mean (IC80) [2] of 0.222 µg/mL and a Median IC80 [2] of 0.375 µg/mL. For the same binder, the Geometric Mean (IC80) [3] was 0.028 µg/mL, the Median IC80 [3] was 0.026 µg/mL and the fold higher affinity than the MPER antibody [4] was 3.1 fold.

B2: Binding Protein 3 (protein)
light 1: ASELTQDPAVSVALKQTVTITCRGDSLRSHYASWYQKKPGQAPVLLFYGKNNRPSGIPDRFSGSASGNRASLTITGAQAEDEADYYCSSRDKSGSRLSVFGGGTKLTVLDKTHTDFVLTQSPHSLSVTPGESASISCKSSHSLIHGDRNNYLAWYVQKPGRSPQLLIYLASSRASGVPDRFSGSGSDKDFTLKISRVETEDVGTYYCMQGRESPWTFGQGTKVDIKDKTHTRTVAAPSVFIFPPSDEQLKSGTASVVCLLNNFYPREAKVQWKVDNALQSGNSQESVTEQDSKDSTYSLSSTLTLSKADYEKHKVYACEVTHQGLSSPVTKSFNRGEC
heavy 1: QVHLTQSGPEVRKPGTSVKVSCKAPGNTLKTYDLHWVRSVPGQGLQWMGWISHEGDKKVIVERFKAKVTIDWDRSTNTAYLQLSGLTSGDTAVYYCAKGSKHRLRDYALYDDDGALNWAVDVDYLSNLEFWGQGTAVTVSSDKTHTEVRLVESGGGLVKPGGSLRLSCSASGFDFDNAWMTWVRQPPGKGLEWVGRITGPGEGWSVDYAESVKGRFTISRDNTKNTLYLEMNNVRTEDTGYYFCARTGKYYDFWSGYPPGEEYFQDWGQGTLVIVSSDKTHTASTKGPSVFPLAPSSKSTSGGTAALGCLVKDYFPEPVTVSWNSGALTSGVHTFPAVLQSSGLYSLSSVVTVPSSSLGTQTYICNVNHKPSNTKVDKKVEPKSCDKTHTCPPCPAPELLGGPSVFLFPPKPKDTLMISRTPEVTCVVVDVSHEDPEVKFNWYVDGVEVHNAKTKPREEQYNSTYRVVSVLTVLHQDWLNGKEYKCKVSNKALPAPIEKTISKAKGQPREPQVYTLPPCRDELTKNQVSLWCLVKGFYPSDIAVEWESNGQPENNYKTTPPVLDSDGSFFLYSKLTVDKSRWQQGNVFSCSVLHEALHSHYTQKSLSLSPG
heavy 2: B1 heavy 2
light 2: B1 light 2
B2 showed a Ka [1] of 6e+07 M⁻¹, a Kd [1] of 16.7 nM and a koff [1] of 0.000779 s⁻¹. The kon [1] was 46700 M⁻¹ s⁻¹, the Geometric Mean (IC80) [2] was 0.287 µg/mL and the Median IC80 [2] was 0.469 µg/mL. It also gave a Geometric Mean (IC80) [3] of 0.051 µg/mL and a Median IC80 [3] of 0.045 µg/mL.

B3: MPER Ab (antibody, V domains shown)
VH: EVRLVESGGGLVKPGGSLRLSCSASGFDFDNAWMTWVRQPPGKGLEWVGRITGPGEGWSVDYAESVKGRFTISRDNTKNTLYLEMNNVRTEDTGYYFCARTGKYYDFWSGYPPGEEYFQDWGQGTLVIVSS
VL: ASELTQDPAVSVALKQTVTITCRGDSLRSHYASWYQKKPGQAPVLLFYGKNNRPSGIPDRFSGSASGNRASLTITGAQAEDEADYYCSSRDKSGSRLSVFGGGTKLTVL
Work on B3 yielded a Ka [1] of 5.35e+07 M⁻¹, a Kd [1] of 18.7 nM and a koff [1] of 0.00109 s⁻¹. For the same binder, the kon [1] was 58500 M⁻¹ s⁻¹, the Geometric Mean (IC80) [3] was 1.34 µg/mL and the Median IC80 [3] was 1.69 µg/mL.

B4: V1/V2 directed Ab “a” (antibody, V domains shown)
VH: QVHLTQSGPEVRKPGTSVKVSCKAPGNTLKTYDLHWVRSVPGQGLQWMGWISHEGDKKVIVERFKAKVTIDWDRSTNTAYLQLSGLTSGDTAVYYCAKGSKHRLRDYALYDDDGALNWAVDVDYLSNLEFWGQGTAVTVSS
VL: DFVLTQSPHSLSVTPGESASISCKSSHSLIHGDRNNYLAWYVQKPGRSPQLLIYLASSRASGVPDRFSGSGSDKDFTLKISRVETEDVGTYYCMQGRESPWTFGQGTKVDIK
With B4 the Geometric Mean (IC80) [2] was 0.094 µg/mL, the Median IC80 [2] was 0.06 µg/mL and the Geometric Mean (IC80) [3] was 0.063 µg/mL. It also gave a Median IC80 [3] of 0.037 µg/mL.

B5: V1/V2 directed Ab “b” (antibody, V domains shown)
VH: QVQLVESGGGVVQPGTSLRLSCAASQFRFDGYGMHWVRQAPGKGLEWVASISHDGIKKYHAEKVWGRFTISRDNSKNTLYLQMNSLRPEDTALYYCAKDLREDECEEWWSDYYDFGKQLPCAKSRGGLVGIADNWGQGTMVTVSS
VL: QSVLTQPPSVSAAPGQKVTISCSGNTSNIGNNFVSWYQQRPGRAPQLLIYETDKRPSGIPDRFSASKSGTSGTLAITGLQTGDEADYYCATWAASLSSARVFGTGTKVIVL
In the case of B5, the Geometric Mean (IC80) [5] is reported as 0.039 µg/mL and the Median IC80 [5] is reported as 0.051 µg/mL.
